The values that follow come from patent US20120225464A1, “Specific Arabinose Transporter of the Plant Arabidopsis Thaliana for the Construction of Pentose-Fermenting Yeasts” (priority 2011, published 2012).

Some results are limits rather than exact numbers.

Common to all, as to format: cell-based, S. cerevisiae
Series [1] has as its target T1, Gal2 (Saccharomyces cerevisiae, UniProt P13181).
T1 construct: expressed in transfected cells; host or cells: S. cerevisiae strain MKY06 (all hexose transporters incl. gal2 deleted)
T1 sequence (P13181 1-574): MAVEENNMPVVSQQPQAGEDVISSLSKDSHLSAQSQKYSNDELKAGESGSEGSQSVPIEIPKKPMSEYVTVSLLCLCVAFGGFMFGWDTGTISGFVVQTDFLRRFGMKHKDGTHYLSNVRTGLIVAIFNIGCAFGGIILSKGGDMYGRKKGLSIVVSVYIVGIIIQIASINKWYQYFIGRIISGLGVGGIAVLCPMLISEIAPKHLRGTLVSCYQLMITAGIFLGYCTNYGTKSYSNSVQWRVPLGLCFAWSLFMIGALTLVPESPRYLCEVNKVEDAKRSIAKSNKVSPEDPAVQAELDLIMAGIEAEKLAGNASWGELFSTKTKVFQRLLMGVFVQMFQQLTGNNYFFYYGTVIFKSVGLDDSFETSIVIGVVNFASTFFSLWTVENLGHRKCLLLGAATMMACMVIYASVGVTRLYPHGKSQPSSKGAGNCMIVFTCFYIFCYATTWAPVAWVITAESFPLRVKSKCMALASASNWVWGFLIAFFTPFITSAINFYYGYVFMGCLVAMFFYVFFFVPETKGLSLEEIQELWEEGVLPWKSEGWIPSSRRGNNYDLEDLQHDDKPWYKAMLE
Description: Inhibition of Gal2-mediated L-arabinose uptake by added sugar. The following applies: addition of 10 mM of the sugar. The protocol: (§1) The initial rates of sugar uptake were measured as follows: a 50-0 aliquot of a sugar solution containing (1-^3H)-labeled L-arabinose, (U-^14C) labeled O-glucose (American Radiolabeled Chemicals Inc.) or (1-^14C) labeled D-galactose (Amersham) was incubated at 30° C. and was mixed with 100 μl of yeast suspensions having the same temperature, resulting in final sugar concentrations of 10 mM L-arabinose, D-glucose and D-galactose. For determination of L-arabinose uptake kinetics 0.1, 1, 5, 10, and 50 mM L-arabinose were used. After different time intervals 10 ml of ice-cold 100 mM potassium phosphate buffer at pH 6.5 with 500 mM. D-glucose was added, and the suspension was immediately filtrated using Durapore® membrane filters (0.22 μm pore size, Millipore). The filter was washed two times with 10 ml of cold potassium phosphate buffer with 500 mM D-glucose. […] Rotiszint® eco plus (Roth) and the radioactivity measured in a scintillation counter. Uptake of radioactivity was nearly linear in time intervals up to 2 minutes. […] Dry weight was determined by filtering 10 ml of the culture through a pre-weighted nitrocellulose filter (0.45 μm pore size; Roth, Germany). […] KM and vmax values were calculated using the program GraphPad Prism 5.0.
(§2) For L-arabinose, uptake kinetics were determined by measuring L-arabinose uptake at various concentrations between 0.1 and 50 mM during 2-minute time intervals. […]

Series [2] has as its target T2, Stp2 (Arabidopsis thaliana, UniProt Q9LNV3).
T2 construct: The open reading frame (ORF) of AtStp2 was amplified and cloned behind the shortened strong HXT7 promoter; expressed in transfected cells; host or cells: S. cerevisiae strain MKY06 (all hexose transporters deleted), plasmid pTHStp2
T2 sequence (Q9LNV3 1-498): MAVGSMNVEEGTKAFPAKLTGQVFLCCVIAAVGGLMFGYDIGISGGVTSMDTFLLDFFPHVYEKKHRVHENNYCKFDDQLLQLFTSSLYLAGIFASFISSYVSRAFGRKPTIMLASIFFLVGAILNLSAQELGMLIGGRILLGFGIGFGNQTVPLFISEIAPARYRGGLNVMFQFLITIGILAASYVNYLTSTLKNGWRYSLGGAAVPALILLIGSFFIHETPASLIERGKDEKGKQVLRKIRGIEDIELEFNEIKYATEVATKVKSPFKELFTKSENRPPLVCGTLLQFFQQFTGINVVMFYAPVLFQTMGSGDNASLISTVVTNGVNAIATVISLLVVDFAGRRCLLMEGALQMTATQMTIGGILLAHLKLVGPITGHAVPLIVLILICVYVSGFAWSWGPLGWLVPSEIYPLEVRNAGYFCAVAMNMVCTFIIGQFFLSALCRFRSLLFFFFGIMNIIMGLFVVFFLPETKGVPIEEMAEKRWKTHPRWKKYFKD
Description: Inhibition of Stp2-mediated L-arabinose uptake by added sugar. The following applies: addition of 10 mM of the sugar. The protocol:
as §1, §2

In series [3] the test system is strain MKY06-3P. Description: Sugar consumption / fermentation analysis by HPLC in SC medium under aerobic conditions. The following applies: transporter overexpressed. The protocol:
(§3) Fermentation analysis of the MKY06-3P containing the plasmids p426-opt-AraT-S (A) or pTHSTp2 (B) in SC medium with 2% glucose under aerobic conditions. As controls the strain MKY06-3P was used containing the plasmids pHL125^re (positive) or p426HXT7-6HIS (negative). The strains with the various plasmids were adducted in SC medium with 2% glucose and inoculated with an OD600nm=1 in 50 ml SC medium. The incubation took place in 300 ml shaking flasks under aerobic conditions at 30° C. Samples were taken several times during the 120 hours to determine the sugar concentration via HPLC analysis.
as §3, with “arabinose” for “glucose”, “analysis. […]” for “analysis.”
The samples taken in the tests were centrifuged for 10 min at 3000 R/min, in order to pellet the yeast cells. […] The sugar concentrations were measured by means of BioLC (Dionex). […]

Series [4] deals with L-arabinose uptake, strain MKY06. Description: L-arabinose uptake kinetics with radioactively labeled sugar in strain MKY06 overexpressing the transporter. The following applies: L-arabinose as the substrate; 0.1-50 mM, 2-minute intervals. As to the method:
The initial rates of sugar uptake were measured as follows: a 50-0 aliquot of a sugar solution containing (1-^3H)-labeled L-arabinose, (U-^14C) labeled O-glucose (American Radiolabeled Chemicals Inc.) or (1-^14C) labeled D-galactose (Amersham) was incubated at 30° C. and was mixed with 100 μl of yeast suspensions having the same temperature, resulting in final sugar concentrations of 10 mM L-arabinose, D-glucose and D-galactose. For determination of L-arabinose uptake kinetics 0.1, 1, 5, 10, and 50 mM L-arabinose were used. After different time intervals 10 ml of ice-cold 100 mM potassium phosphate buffer at pH 6.5 with 500 mM. D-glucose was added, and the suspension was immediately filtrated using Durapore® membrane filters (0.22 μm pore size, Millipore). The filter was washed two times with 10 ml of cold potassium phosphate buffer with 500 mM D-glucose. Filters were transferred to 5 ml scintillation vials containing 4.5 ml. Rotiszint® eco plus (Roth) and the radioactivity measured in a scintillation counter. Uptake of radioactivity was nearly linear in time intervals up to 2 minutes. The results shown are average values for two to three independent experiments. Dry weight was determined by filtering 10 ml of the culture through a pre-weighted nitrocellulose filter (0.45 μm pore size; Roth, Germany). The filters were washed with demineralized water, dried in a microwave oven for 20 minutes at 140 W, and weighted again. KM and vmax values were calculated using the program GraphPad Prism 5.0.
For L-arabinose, uptake kinetics were determined by measuring L-arabinose uptake at various concentrations between 0.1 and 50 mM during 2-minute time intervals. While Gal2 turned out to transport L-arabinose with low affinity and high capacity, Stp2 mediated uptake of L-arabinose with low capacity but high affinity (Table 1).

Series [5] concerns D-glucose uptake, strain MKY06. Description: Initial rate of D-glucose uptake with radioactively labeled sugar in strain MKY06 overexpressing the transporter. The following applies: 10 mM D-glucose, 1 minute; empty-vector background subtracted. The protocol: Initial rates of sugar uptake of strain MKY06 expressing Stp2 (AtStp2) or Gal2 (ScGal2). Cells were grown on D-galactose or maltose (empty vector), harvested and incubated with the radioactively labeled sugars: 10 mM L-arabinose (A), 10 mM D-galactose (B) and 10 mM D-glucose (C) for 2 minutes (L-arabinose) or 1 minute (D-galactose, D-glucose). The background values determined with cells containing the empty vector were subtracted.
as §1, with “used.” for “used. After different time intervals 10 ml of ice-cold 100 mM potassium phosphate buffer at pH 6.5 with 500 mM. D-glucose was added, and the suspension was immediately filtrated using Durapore® membrane filters (0.22 μm pore size, Millipore). The filter was washed two times with 10 ml of cold potassium phosphate buffer with 500 mM D-glucose.”, “5.0. […]” for “5.0.”

Turning to `O=C[C@H](O)[C@@H](O)[C@@H](O)[C@H](O)CO` [D-galactose], the “Inhibition of L-arabinose uptake (Gal2)” value in series [1] is given as “nearly completely inhibited”. Besides, the “Inhibition of L-arabinose uptake (Stp2)” value in series [2] was “nearly completely inhibited”.
Regarding `O=C[C@H](O)[C@@H](O)[C@H](O)[C@H](O)CO` [D-glucose], the “Inhibition of L-arabinose uptake (Gal2)” value in series [1] is on record as “nearly completely inhibited”. Besides, in series [2], the “Inhibition of L-arabinose uptake (Stp2)” value was “nearly completely inhibited”.
Turning to AraT, the “Glucose transport in the strain MKY06-3P” value in series [3] is reported as “small amounts of glucose”.

B1: Gal2: S. cerevisiae galactose permease Gal2, known to also transport L-arabinose (protein, UniProt P13181 1-574, looked up)
Galactose transporter: MAVEENNMPVVSQQPQAGEDVISSLSKDSHLSAQSQKYSNDELKAGESGSEGSQSVPIEIPKKPMSEYVTVSLLCLCVAFGGFMFGWDTGTISGFVVQTDFLRRFGMKHKDGTHYLSNVRTGLIVAIFNIGCAFGGIILSKGGDMYGRKKGLSIVVSVYIVGIIIQIASINKWYQYFIGRIISGLGVGGIAVLCPMLISEIAPKHLRGTLVSCYQLMITAGIFLGYCTNYGTKSYSNSVQWRVPLGLCFAWSLFMIGALTLVPESPRYLCEVNKVEDAKRSIAKSNKVSPEDPAVQAELDLIMAGIEAEKLAGNASWGELFSTKTKVFQRLLMGVFVQMFQQLTGNNYFFYYGTVIFKSVGLDDSFETSIVIGVVNFASTFFSLWTVENLGHRKCLLLGAATMMACMVIYASVGVTRLYPHGKSQPSSKGAGNCMIVFTCFYIFCYATTWAPVAWVITAESFPLRVKSKCMALASASNWVWGFLIAFFTPFITSAINFYYGYVFMGCLVAMFFYVFFFVPETKGLSLEEIQELWEEGVLPWKSEGWIPSSRRGNNYDLEDLQHDDKPWYKAMLE
Usually Km stands for the concentration of substrate that gives half-maximal velocity. Consider B1, for which, in series [4], the Km is 57 mM and the vmax is reported as 2.2 +/− 0.26 nmol/min/mg DM. Further, the D-glucose uptake rate in series [5] is listed as 4.7 nmol/min/mg DM.

B2: Stp2: transporter Stp2 from Arabidopsis thaliana, a protein of 498 amino acids (SEQ ID NO. 1) (protein, listed as Arabidopsis thaliana)
chain: MAVGSMNVEEGTKAFPAKLTGQVFLCCVIAAVGGLMFGYDIGISGGVTSMDTFLLDFFPHVYEKKHRVHENNYCKFDDQLLQLFTSSLYLAGIFASFISSYVSRAFGRKPTIMLASIFFLVGAILNLSAQELGMLIGGRILLGFGIGFGNQTVPLFISEIAPARYRGGLNVMFQFLITIGILAASYVNYLTSTLKNGWRYSLGGAAVPALILLIGSFFIHETPASLIERGKDEKGKQVLRKIRGIEDIELEFNEIKYATEVATKVKSPFKELFTKSENRPPLVCGTLLQFFQQFTGINVVMFYAPVLFQTMGSGDNASLISTVVTNGVNAIATVISLLVVDFAGRRCLLMEGALQMTATQMTIGGILLAHLKLVGPITGHAVPLIVLILICVYVSGFAWSWGPLGWLVPSEIYPLEVRNAGYFCAVAMNMVCTFIIGQFFLSALCRFRSLLFFFFGIMNIIMGLFVVFFLPETKGVPIEEMAEKRWKTHPRWKKYFKD
With B2, in series [4], the Km was found to be 4.5 mM and the vmax was 0.6 +/− 0.08 nmol/min/mg DM. Moreover, the D-glucose uptake rate in series [5] is given as less than 0.01 nmol/min/mg DM.
